{"source": "paper PMC8115288", "about": "(2021)", "parents": {"B1": {"name": "GST-CTD (C-terminal domain of HIV-1 integrase, aa 201-288) [HIV-1 (Hx3B)] / His6-SUMO-INI1_(183-304) [not stated] (parent complex)", "chain 1": "VDIIATDIQTKELQKQITKIQNFRVYYRDSRNPLWKGPAKLLWKGEGAVVIQDNSDIKVVPRRKAKIIRDYGKQMAGDDCVASRQDED", "chain 2": "PEVLVPIRLDMEIDGQKLRDAFTWNMNEKLMTPEMFSEILCDDLDLNPLTFVPAIASAIRQQIESYPTDSILEDQSDQRVIIKLNIHVGNISLVDQFEWDMSEKENSPEKFALKLCSELGLG"}}}
{"variants_of": "B1", "assay": "Alpha assay; low salt conditions; parent: 100; read off a plot"}
{"variant": "chain 1 W35K", "percent of parent": "~4 % of WT"}
{"variant": "chain 1 K44A", "percent of parent": "~15 % of WT"}
{"variant": "chain 1 W35F", "percent of parent": "~90 % of WT"}
{"variant": "chain 1 W35E", "percent of parent": "~2 % of WT"}
{"variant": "chain 1 K64A, chain 1 K66A", "percent of parent": "~2 % of WT"}
{"variant": "chain 1 W35A", "percent of parent": "~17 % of WT"}
